Substitutions are numbered along the chain they refer to.
T1: Pig Semaphorin3A-Sema Domain, TPP-20176 (pig, UniProt Q63548 21-569 (rat entry))
T1 construct: produced inhouse
T1 chain: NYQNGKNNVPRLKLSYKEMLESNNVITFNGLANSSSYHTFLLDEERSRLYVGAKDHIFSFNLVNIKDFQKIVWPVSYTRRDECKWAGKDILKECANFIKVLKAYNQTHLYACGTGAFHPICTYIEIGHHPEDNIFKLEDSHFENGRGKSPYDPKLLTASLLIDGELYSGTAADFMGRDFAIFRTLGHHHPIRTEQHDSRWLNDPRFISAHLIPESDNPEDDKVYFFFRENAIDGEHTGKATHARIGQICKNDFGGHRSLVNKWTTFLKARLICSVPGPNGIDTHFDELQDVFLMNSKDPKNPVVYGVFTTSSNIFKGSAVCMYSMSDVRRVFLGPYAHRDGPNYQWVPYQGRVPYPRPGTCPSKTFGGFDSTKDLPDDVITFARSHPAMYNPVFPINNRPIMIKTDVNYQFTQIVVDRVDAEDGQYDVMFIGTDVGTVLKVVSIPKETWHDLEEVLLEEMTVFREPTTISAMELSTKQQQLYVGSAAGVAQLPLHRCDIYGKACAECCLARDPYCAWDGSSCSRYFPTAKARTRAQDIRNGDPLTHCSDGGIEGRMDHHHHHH

T2: Rat Semaphorin3A-Sema Domain, TPP-19120 (rat, UniProt Q63548 21-569)
T2 construct: produced inhouse
T2 sequence: T1 chain with Q3A, I126V, E138Q, T237S, V303I, I444V, V483I, A486T

B1: TPP-30788 (antibody, human IgG1, kappa, V domains shown)
VH: EVQLVESGGGLVQPGGSLRLSCAASGFTFSSYYMSWVRQAPGKGLEWVSTIIKSGGYAYYPDSVKDRFTISRDNSKNTLYLQMSSLRAEDTAVYYCVRGGQGAMDYWGQGTTVTVSS
VL: EIVLTQSPATLSLSPGERATLSCRASQSIGDYLHWYQQKPGQAPRLLIKYASQSISGIPARFSGSGSGTDFTLTITSLEPEDFAVYYCQQGYSFPYTFGGGTKLEIKR
notes: prior art, WO 2020/225400; also called BI clone I; Böhringer (BI) Clone I
B2: TPP-15374 (antibody, human IgG1, lambda, V domains shown)
VH: EVQLLESGGGLVQPGGSLRLSCAASGFTFSSYEMNWVRQAPGKGLEWVSGISWNSGSIGYADSVKGRFTISRDNSKNTLYLQMNSLRAEDTAVYYCARSGYSSSWFDPDFDYWGQGTLVTVSS
VL: QSVLTQPPSASGTPGQRVTISCTGSSSNIGAGYDVHWYQQLPGTAPKLLIYGNSNRPSGVPDRFSGSKSGTSASLAISGLRSEDEADYYCSSYAGSNPYVVFGGGTKLTVLG
notes: human IgG1; also called IgG1, hit from panning; parental mAb
B3: TPP-15370 (antibody, human IgG1, lambda, V domains shown)
VH: EVQLLESGGGLVQPGGSLRLSCAASGFTFSSYGMHWVRQAPGKGLEWVSAIGTGGDTYYADSVMGRFTISRDNSKNTLYLQMNSLRAEDTAVYYCARRDDYTSRDAFDVWGQGTLVTVSS
VL: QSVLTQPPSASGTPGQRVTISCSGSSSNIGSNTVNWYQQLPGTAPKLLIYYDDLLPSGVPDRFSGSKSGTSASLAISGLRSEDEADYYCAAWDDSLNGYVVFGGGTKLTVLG
notes: as for B2

How the values were obtained:
[1] = target: T1, Pig Semaphorin3A-Sema Domain, TPP-20176; test: SPR, captured antibody, Sema3A domain analyte
Summary of the method: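 Kinetics fitted to a 1:1 Langmuir model after double referencing; glycine pH 2.0 regeneration. Sema3A domain analytes (several species) ran at […]-3.125 nM multi-cycle or single 100 nM; Fc-tagged Sema3A at 1.56-200 nM over Fab-captured antibody, otherwise Fc capture. Buffer HBS P+ plus 300 mM NaCl, CaCl₂, MgCl₂, BSA, 25° C.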

[2] = target: Human Semaphorin3A-Fc (R&D Systems), TPP-13211 (human); test: cell-based or functional assay
Human Semaphorin3A-Fc (R&D Systems), TPP-13211 (human), sequence (chain, as listed by the source limits assumed): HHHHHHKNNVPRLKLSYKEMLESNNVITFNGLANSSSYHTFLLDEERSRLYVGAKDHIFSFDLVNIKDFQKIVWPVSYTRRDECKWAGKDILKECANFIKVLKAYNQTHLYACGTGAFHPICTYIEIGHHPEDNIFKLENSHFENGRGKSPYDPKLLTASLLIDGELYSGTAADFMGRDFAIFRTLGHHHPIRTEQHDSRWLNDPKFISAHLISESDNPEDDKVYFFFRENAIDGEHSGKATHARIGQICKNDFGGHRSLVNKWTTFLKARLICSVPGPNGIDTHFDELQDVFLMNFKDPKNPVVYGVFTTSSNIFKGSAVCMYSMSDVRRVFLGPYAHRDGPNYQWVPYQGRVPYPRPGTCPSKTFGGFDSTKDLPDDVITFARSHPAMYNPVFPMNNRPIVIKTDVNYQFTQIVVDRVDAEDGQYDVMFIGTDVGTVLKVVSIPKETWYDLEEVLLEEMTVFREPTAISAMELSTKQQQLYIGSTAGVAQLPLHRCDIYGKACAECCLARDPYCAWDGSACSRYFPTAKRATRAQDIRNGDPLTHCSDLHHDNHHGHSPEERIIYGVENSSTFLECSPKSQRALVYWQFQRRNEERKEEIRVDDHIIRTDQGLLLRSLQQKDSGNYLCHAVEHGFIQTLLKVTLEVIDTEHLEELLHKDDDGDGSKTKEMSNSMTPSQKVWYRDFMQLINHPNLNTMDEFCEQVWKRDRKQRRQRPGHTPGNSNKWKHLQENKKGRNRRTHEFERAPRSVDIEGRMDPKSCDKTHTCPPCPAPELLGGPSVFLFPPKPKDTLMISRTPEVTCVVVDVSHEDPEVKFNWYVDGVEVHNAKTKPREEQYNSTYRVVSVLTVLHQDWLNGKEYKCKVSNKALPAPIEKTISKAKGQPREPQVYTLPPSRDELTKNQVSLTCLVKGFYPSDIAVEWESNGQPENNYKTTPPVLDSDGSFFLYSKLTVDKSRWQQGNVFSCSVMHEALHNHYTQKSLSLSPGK

[3] = target: T2, Rat Semaphorin3A-Sema Domain, TPP-19120; test: SPR, captured antibody, Sema3A domain analyte
Procedure: To assess the binding activity of anti-Sema3A antibodies binding assays were conducted using surface plasmon resonance (SPR). Binding assays were performed on a Biacore T200 instrument (Cytiva) at 25° C. using assay buffer HBS P+, 300 mM NaCl, 0.75 mM CaCl₂, 2.5 mM MgCl₂, 1 mg/ml BSA, 0.05% NaN₃. Antibodies were captured via anti-human Fc IgGs (“Human antibody capture kit”, Order No. BR100839, Cytiva) covalently amine coupled to a Series S CM5 sensor chip (Cytiva). The amine coupling was carried out according to the manufacturer's instructions using 1-ethyl-3-(3-dimethylaminopropyl) carbodiimide hydrochloride (EDC), N-hydroxysuccinimide (NHS) and ethanolamine HCl, pH 8.5 (“Amine Coupling Kit” BR-1000-50, Cytiva.). Human, mouse, cynomolgus, rat, dog and pig monovalent Sema3A domain were used as analytes in a concentration series from 0.024-3.125 nM in multi cycle kinetics mode. The sensor surface was regenerated with glycine pH 2.0 after each antigen injection. Obtained sensorgrams were double referenced (subtraction of reference flow cell signal and buffer injection) and were fitted to a 1:1 Langmuir binding model using the Biacore T200 Evaluation software obtaining the experimental fitted RMax value. To calculate the binding activity first the theoretical RMax needs to be calculated according to equation 1: […]
Binding activity was determined by dividing the experimental determined RMax by the theoretical calculated RMax according to equation 2: […]

Row | Binder | Kd [1] [nM] | EC50 [nM], MCM assay [2] [nM] | Binding Activity [%] [3] [%]
1 | B1 | 0.038 | 1.43 | 109
2 | B2 | 7.2 | 5.07 | 94
3 | B3 | 9 | 4.13 | 113

— patent US20240254222A1 (Bayer, published 2024)
